This assay addresses SARS-CoV-2 RBDwt (residues 319 to 541) (SARS-CoV-2, UniProt P0DTC2 319-541). The assay is described as follows: SPR. (Surface plasmon resonance follows binding to a sensor surface in real time, without labels.)

The results in this text go back to article PMC9278865 (Science Advances, 2022).

B1: ACE2_(740) LFMYQY2HA in the IgG3 backbone with a truncated hinge (M80) (Fc fusion)
chain: QSTIEEQAKTFLDKFNHEAEDLFYQSSLASWNYNTNITEENVQNMNNAGDKWSAFLKEQSTFAQYYPLQEIQNLTVKLQLQALQQNGSSVLSEDKSKRLNTILNTMSTIYSTGKVCNPDNPQECLLLEPGLNEIMANSLDYNERLWAWESWRSEVGKQLRPLYEEYVVLKNEMARANHYEDYGDYWRGDYEVNGVDGYDYSRGQLIEDVEHTFEEIKPLYEHLHAYVRAKLMNAYPSYISPIGCLPAHLLGDMWGRFWTNLYSLTVPFGQKPNIDVTDAMVDQAWDAQRIFKEAEKFFVSVGLPNMTYGFWENSMLTDPGNVQKAVCHPTAWDLGKGDFRILMCTKVTMDDFLTAHAEMGAIQYDMAYAAQPFLLRNGANEGFHEAVGEIMSLSAATPKHLKSIGLLSPDFQEDNETEINFLLKQALTIVGTLPFTYMLEKWRWMVFKGEIPKDQWMKKWWEMKREIVGVVEPVPHDETYCDPASLFHVSNDYSFIRYYTRTLYQFQFQEALCQAAKHEGPLHKCDISNSTEAGQKLFNMLRLGKSEPWTLALENVVGAKNMNVRPLLNYFEPLFTWLKDQNKNSFVGWSTDWSPYADQSIKVRISLKSALGDKAYEWNDNEMYLFRSSVAYAMRQYFLKVKNQMILFGEEDVRVANLKPRISFNFFVTAPKNVSDIIPRTEVEKAIRMSRSRINDAFRLNDNSLEFLGIQPTLGPPNQPPVS
Turning to B1, the binding result is recorded as “binds”.
